Reference: paper PMC3140635 (2012)

B1: Glycophorin A TM domain (SNGpATM) TMD (protein)
chain: GERVQLAHHFSEPEITLIIFGVMAGVIGTILLISYGIRRLIKKSPSDVKPLPSPDTDVPLSSVEIENPETSDQ

Legend:
[1] = target: the molecule itself; test: steric trap, PC bilayers, L/P 1400-1600, no IMP
steric trap, PE/PG/PC = target: the molecule itself; test: steric trap, PE/PG/PC
steric trap, PG/PC [2] = target: the molecule itself; test: steric trap, PG/PC
steric trap, PG/PC [3] = target: the molecule itself; test: steric trap, PG/PC; remark: listed apart in the source
steric trap, lysoPC/PC = target: the molecule itself; test: steric trap, lysoPC/PC
steric trap, PS/PC = target: the molecule itself; test: steric trap, PS/PC
[4] = target: the molecule itself; test: steric trap, E. coli lipid bilayers, L/P 1500
steric trap, PG/PC [5] = target: the molecule itself; test: steric trap, PG/PC; remark: listed apart in the source
steric trap = target: the molecule itself; test: steric trap
steric trap, DM micelles = target: the molecule itself; test: steric trap, DM micelles
[6] = target: the molecule itself; test: steric trap, PC bilayers, L/P 1000
steric trap, PE/PC = target: the molecule itself; test: steric trap, PE/PC
[7] = target: B1; test: steric trap, PC bilayers, L/P 1400-1600

Kd [7] [nM]	Binder	Kd [1] [nM]	Kd (steric trap, PE/PG/PC) [nM]	Kd (steric trap, PG/PC [2]) [nM]	Kd (steric trap, PG/PC [3]) [nM]	Kd (steric trap, lysoPC/PC) [nM]	Kd (steric trap, PS/PC) [nM]	Kd [4] [nM]	Kd (steric trap, PG/PC [5]) [nM]	Kd (steric trap) [nM]	Kd (steric trap, DM micelles) [nM]	Kd [6] [nM]	Kd (steric trap, PE/PC) [nM]
	B1	0.003	5.1	32	47	6	25	10	14	11	170	0.0015	0.00021
9.2	Glycophorin A TM domain (SNGpATM) TMD (protein, E. coli inner membrane proteins at mass ratio 1.0) GERVQLAHHFSEPEITLIIFGVMAGVIGTILLISYGIRRLIKKSPSDVKPLPSPDTDVPLSSVEIENPETSDQ												
